The values that follow come from PMC9791688, “Bioluminescence Goes Dark: Boosting the Performance of Bioluminescent Sensor Proteins Using Complementation Inhibitors” (ACS Sensors, 2022).

This test addresses T1, LgBiT (C-terminal GTTSA linker and Strep-tag (WSHPQFEK) omitted).
T1 chain: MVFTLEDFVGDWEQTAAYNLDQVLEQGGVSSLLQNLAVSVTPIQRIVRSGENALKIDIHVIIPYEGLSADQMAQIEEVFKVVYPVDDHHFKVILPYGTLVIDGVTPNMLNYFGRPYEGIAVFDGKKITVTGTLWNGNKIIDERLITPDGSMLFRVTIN
As to the kind of experiment: split reporter (BiFC, NanoBiT); competition: DarkBiT101 titrated to 75 pM SmBiT86 and 0.75 nM LgBiT, loss of luminescence; 1x PBS, 0.02% Tween20, 4 °C for 16 h before addition of 1:1000 NanoGlo. The note with it: both partners purified.

A word on the Ki: it is a measure of affinity in units of concentration, obtained from inhibition or displacement. Low readings indicate tighter binding, high ones weaker binding. In turn, VTGYALFEKES [DarkBiT101 peptide] yielded a Ki of 2.6 ± 0.4 µM.
